Usually stoichiometry N stands for the number of molecules, sites or subunits per partner or assembly.

This note sets out measurements from article PMC8857484.

Common to all, as to assay: cross-linking; in vivo cysteine cross-linking with 180 μM aldrithiol-4, 20 min, 37 °C, in SUKO HEK-293T cells expressing single-cysteine STIM1 with or without UNC93B1-FLAG-MYC, treated or not with 0.5 μM thapsigargin for 5 min; non-reducing electrophoresis, blot with anti-STIM1
The target of assay [1] is STIM1-A230C (cysteine-less STIM1 with a single cysteine at residue 230, TM region) (UniProt Q13586).
For assay [2], the target named is STIM1-L251C (cysteine-less STIM1 with a single cysteine at residue 251, CC1 domain) (UniProt Q13586).
In assay [3] the target is STIM1-M241C (cysteine-less STIM1 with a single cysteine at residue 241, juxtamembrane region) (UniProt Q13586).

“STIM1-A230C (cysteine-less STIM1 with a single cysteine at residue 230, TM region) (from UniProt Q13586 23-685) (natural protein)”: the stoichiometry N in assay [1] was found to be 2.

For “STIM1-L251C (cysteine-less STIM1 with a single cysteine at residue 251, CC1 domain) (from UniProt Q13586 23-685) (natural protein)”, the stoichiometry N in assay [2] amounted to 2.

“STIM1-M241C (cysteine-less STIM1 with a single cysteine at residue 241, juxtamembrane region) (from UniProt Q13586 23-685) (natural protein)” gave a stoichiometry N in assay [3] of 2.
